Laboratory results published in US8394929B2, “Nogo receptor-mediated blockade of axonal growth” (Yale University, priority 2000, dated 2013).
Like-named read-outs stand apart in the source and are kept apart here.

Key:
[1] = tested on: Sema3A-induced growth cone collapse; experiment: Sema3A-induced growth cone collapse in chick DRG cultures; format: cell-based
Description: The Nogo-66 receptor protein is necessary for Nogo-66 action and not simply a binding site with a function unrelated to inhibition of axonal outgrowth. A first prediction is that phosphoinositol specific-Phospholipase C (PI-PLC) treatment to remove glycophosphatidylinositol (GPI)-linked proteins from the neuronal surface will render neurons insensitive to Nogo-66. This prediction holds true for chick E13 dorsal root ganglion neurons; PI-PLC treatment abolishes both AP-Nogo binding and GST-Nogo-66-induced growth cone collapse (FIG. 10a-c). As a control, Sema3A responses in the parallel cultures are not altered by PI-PLC treatment.
For further testing, a synthetic peptide containing amino acid residues #1055-1094 of hNgR, acetylated at the […] was used [hereinafter “Peptide 140”]. […] Antagonist of Nogo-66 inhibitory activity may act by competing for, and thereby blocking NgR binding sites. To determine the antagonistic activity of Peptide 140, the above synthetic form of the peptide was added to E12 chick DRG explant cultures approximately 10 min before application of various concentrations of GST-NogoA (residues #1055-1120), TPA or Sema3A. 30 min later, cultures were fixed and growth cone collapse was assessed following staining with rhodamine-phalloidin.

mouse NgR = target: T1, mouse NgR (Mus musculus, UniProt Q99PI8); experiment: AP-fusion protein binding to COS-7 cells expressing mouse NgR
T1 construct: expressed in transfected cells; host or cells: COS-7
T1 sequence (Q99PI8 27-473): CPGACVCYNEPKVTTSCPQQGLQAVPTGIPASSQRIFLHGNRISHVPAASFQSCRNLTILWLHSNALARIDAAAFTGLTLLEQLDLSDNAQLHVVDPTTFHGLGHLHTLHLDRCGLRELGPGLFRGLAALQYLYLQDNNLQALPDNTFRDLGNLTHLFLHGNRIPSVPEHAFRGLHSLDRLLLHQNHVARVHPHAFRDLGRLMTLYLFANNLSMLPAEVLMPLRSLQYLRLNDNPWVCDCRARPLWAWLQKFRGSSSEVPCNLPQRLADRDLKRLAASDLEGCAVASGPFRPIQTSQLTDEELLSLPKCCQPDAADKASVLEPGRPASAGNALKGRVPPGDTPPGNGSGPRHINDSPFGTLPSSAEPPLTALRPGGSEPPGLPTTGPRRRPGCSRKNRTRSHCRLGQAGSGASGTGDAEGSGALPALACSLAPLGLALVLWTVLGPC
Experimental: To determine if AP-fused deletion mutants of Nogo-66 bind mouse NgR (“mNgR”), COS-7 cells were transfected with a plasmid encoding the mouse NgR sequence ligated into pcDNA3.1. 48 hours after transfection, cells were washed with HBH (Hanks balanced salt solution containing 20 mM sodium Hepes, pH 7.05, and 1 mg ml^−1 bovine serum albumin) and then incubated with condition medium containing one of the AP-fusion proteins described above for 2 hours at 37° C. Cells were then washed, fixed, and left in HBH at 67° C. for 14-16 h to inactivate endogenous AP. AP-fusion protein binding to NgR expressing COS-7 cells was detected with the substrates NBT and BCIP (FIG. 13b).
To determine whether mNgR or mNgR deletion mutants bound to hNogo-A (1055-1120), wtNgR or mNgR deletion mutants were transfected into COS-7 cells. Forty-eight hours after the transfection, the transfected COS-7 cells were washed with hanks balanced salt solution containing 20 mM sodium HEPES, pH 7.05, and 1 mg/ml bovine serum albumin (BSA) [hereinafter “HBH”]. Cells were then incubated for 2 hours at 23° C. with a conditioned medium enriched with purified AP-hNogo-A (1055-1120) diluted in HBH. AP-fusion protein was detected as previously described for AP-Sema3A (Takahashi et al., Nature Neurosci. 1:487-493, 1998).

[2] = tested on: dorsal root ganglion neurons; experiment: Cell survival in GST-Nogo-treated DRG cultures; format: cell-based, chick
Description: The nanomolar potency is on a par with most known physiologic regulators of axon guidance.

[3] = tested on: chick E7 retinal ganglion cells; experiment: Growth cone collapse in uninfected chick E7 retinal ganglion cells; format: cell-based; details: neurons lacking the Nogo-66 receptor
Description: Both dorsal root ganglion and retinal neurons from E7 chick embryos were examined. The Nogo responses in the dorsal root ganglion neurons from this developmental stage are weak but slight responses can be detected in some cultures (data not shown).
For some receptor systems, such soluble receptor ligand complexes can block signaling by creating an ineffective interaction. For example, the soluble ectodomain of Trk serves to block neurotrophin signaling and has been extensively used for this purpose (Shelton et al., (1995) J. Neurosci. 15, 477-491). Alternatively, the Nogo-66/NgR-ecto soluble complex may bind to and stimulate the presumed second transmembrane NgR subunit. There is precedence for this type of effect from studies of GDNF family receptors (Cacalano et al., (1998) Neuron 21, 53-62).

NgRL1 chimeric receptor = target: T2, NgRL1 chimeric receptor (Mus musculus, UniProt P11627+Q99PI8); experiment: Growth cone collapse in E7 retinal ganglion cells infected with NgRL1; format: cell-based
T2 construct: L1NgR encodes residues 1-451 of mouse NgR fused to the transmembrane and cytoplasmic tail of mouse L1; expressed in transfected cells; host or cells: chick E7 retinal ganglion cells infected with recombinant HSVL1NgR
Experimental: Growth cone collapse in response to GST-hNogo-A (1055-1120) was investigated in infected RGC cultures. Retinal explants infected with recombinant viral preparations of PlexinA1 (PlexA1), wild-type NgR (wtNgR), NgRL1 chimeric receptor in which the GPI domain has been replaced by the transmembrane region and cytoplasmic tail from the mouse adhesion protein L1 (NgRL1), or NgR carboxy terminal deletion mutant (NgRΔCT) for 12 hr. Following infection, the cells were treated for 30 min with 0, 50, 250, or 500 nM GST-hNogo-A (1055-1120) (GrandPre et al., Nature 403: 439-444, 2000), fixed with 4% paraformaldehyde with 0.1 M PO4 and 20% sucrose, and stained with phalloidin. […] Cells infected with NgRΔCT were insensitive to GST-hNogo-A (1055-1120). The CT region of NgR is therefore required for effective NgR inhibitory signaling.
To test the signaling capability of NgRLI, recombinant HSVL1NgR preparations were produced and used to infect E7 RGCs. Infected RGCs were treated with GST-hNogo-A (1055-1120) and growth cone collapse was assessed (FIG. 20). […] Because the intracellular signals induced by Nogo have not been elucidated, it remains to be determined if ligand binding effects signaling events at caveolar microdomains.

T2 sequence (Q99PI8+P11627 fused, change not shown): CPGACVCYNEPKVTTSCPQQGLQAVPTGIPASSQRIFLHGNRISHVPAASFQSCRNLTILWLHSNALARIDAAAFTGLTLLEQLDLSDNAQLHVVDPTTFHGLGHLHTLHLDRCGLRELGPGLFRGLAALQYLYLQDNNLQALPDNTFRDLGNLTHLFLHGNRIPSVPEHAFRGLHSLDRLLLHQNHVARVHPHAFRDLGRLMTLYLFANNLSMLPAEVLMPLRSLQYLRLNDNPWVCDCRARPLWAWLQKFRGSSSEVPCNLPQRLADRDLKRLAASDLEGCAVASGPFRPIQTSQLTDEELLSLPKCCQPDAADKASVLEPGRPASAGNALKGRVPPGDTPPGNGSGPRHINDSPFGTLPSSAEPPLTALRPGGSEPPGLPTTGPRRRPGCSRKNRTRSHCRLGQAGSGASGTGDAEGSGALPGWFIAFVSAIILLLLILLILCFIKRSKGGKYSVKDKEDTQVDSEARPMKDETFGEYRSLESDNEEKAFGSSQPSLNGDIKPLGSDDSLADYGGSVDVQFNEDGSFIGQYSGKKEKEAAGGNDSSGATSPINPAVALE

**Q.** For “Peptide 140: synthetic peptide of amino acids #1055-1094 of the human NogoA protein, acetylated and amidated at the termini (Ac-RIYKGVIQAIQKSDEGHPFRAYLESEVAISEELVQKYSNS-NH2; UniProt Q9NQC3 1055-1094, looked up, fragment)”, which “effect on Sema3A-induced growth cone collapse (in words)” value [1] is on record?
**A.** The value was “no significant reduction in collapse”.

B1: AP-Nogo: fusion protein of His6 tag, placental alkaline phosphatase (AP) and the 66 amino acid active domain of Nogo (protein)
chain: HHHHHHIIPVEEENPDFWNREAAEALGAAKKLQPAQTAAKNLIIFLGDGMGVSTVTAARILKGQKKDKLGPEIPLAMDRFPYVALSKTYNVDKHVPDSGATATAYLCGVKGNFQTIGLSAAARFNQCNTTRGNEVISVMNRAKKAGKSVGVVTTTRVQHASPAGTYAHTVNRNWYSDADVPASARQEGCQDIATQLISNMDIDVILGGGRKYMFRMGTPDPEYPDDYSQGGTRLDGKNLVQEWLAKRQGARYVWNRTELMQASLDPSVTHLMGLFEPGDMKYEIHRDSTLDPSLMEMTEAALRLLSRNPRGFFLFVEGGRIDHGHHESRAYRALTETIMFDDAIERAGQLTSEEDTLSLVTADHSHVFSFGGYPLRGSSIFGLAPGKARDRKAYTVLLYGNGPGYVLKDGARPDVTESESGSPEYRQQSAVPLDEETHAGEDVAVFARGPQAHLVHGVQEQTFIAHVMAFAACLEPYTACDLAPPAGTTDAAHPGRIYKGVIQAIQKSDEGHPFRAYLESEVAISEELVQKYSNSALGHVNCTIKELRRLFLVDDLVDSLK
**Q.** For B1, which “binding to NgR expressing COS-7 cells (in words)” value (mouse NgR) is on record?
**A.** The value was “selective binding”.

**Q.** What about the “binding to NgR expressing COS-7 cells (in words)” value (mouse NgR; listed as AP-hNogo-A (1055-1120)) of the same molecule?
**A.** The value was “bound”.

B2: GST-Nogo: GST fusion protein of the 66 amino acid lumenal-extracellular fragment of Nogo-A, expressed in E. coli (protein)
chain: RIYKGVIQAIQKSDEGHPFRAYLESEVAISEELVQKYSNSALGHVNCTIKELRRLFLVDDLVDSLK
modifications: also: GST fusion protein
notes: GST fusion protein of the 66 amino acid lumenal-extracellular fragment of Nogo-A, expressed in E. coli
**Q.** Which results are given for B2?
**A.** number of neurofilament-positive adherent cells [2]: 137±24 % of GST-treated cultures; apoptotic nuclei identified by DAPI staining ([2]; GST-Nogo-treated specimens): 5.2±1.1%; growth cone collapse (in words) [3]: uniformly insensitive; growth cone collapse response (in words) (NgRL1 chimeric receptor; 50 nM GST-hNogo-A (1055-1120)): not responsive; growth cone collapse response (in words) (NgRL1 chimeric receptor; high concentrations of GST-hNogo-A (1055-1120)): transduces Nogo signals as efficiently as wtNgR
